Test results from US8080400B2, “Crystal structure of monoacylglycerol lipase (MGLL)” (Janssen Pharmaceutica N.V., priority 2009, dated 2011).
Numbering of substitutions follows the chain as printed. In names and notes the source's numbering stands.

T1: MGLL (Homo sapiens, UniProt Q99685, L169S/L176S)
T1 construct: His tag followed by a TEV cleavage site (N); made in house; host or cells: Sf9 insect cells (baculovirus)
T1 sequence (Q99685 with tags, fused parts or gaps L169S/L176S): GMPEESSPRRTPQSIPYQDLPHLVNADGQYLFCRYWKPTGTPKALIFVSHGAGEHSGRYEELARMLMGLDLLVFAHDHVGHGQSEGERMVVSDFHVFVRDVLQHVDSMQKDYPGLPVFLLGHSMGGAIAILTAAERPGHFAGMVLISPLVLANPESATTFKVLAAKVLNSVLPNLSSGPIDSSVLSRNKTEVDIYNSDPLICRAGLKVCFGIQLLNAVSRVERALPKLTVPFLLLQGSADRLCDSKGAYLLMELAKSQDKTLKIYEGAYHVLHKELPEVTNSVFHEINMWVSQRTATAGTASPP

B1: wt-MGLL.1-303: wild-type human MGLL isoform 2, amino acids 1-303, with N-terminal His tag and TEV site (SEQ ID NO: 3) (protein)
chain: MVDHHHHHHENLYFQGMPEESSPRRTPQSIPYQDLPHLVNADGQYLFCRYWKPTGTPKALIFVSHGAGEHSGRYEELARMLMGLDLLVFAHDHVGHGQSEGERMVVSDFHVFVRDVLQHVDSMQKDYPGLPVFLLGHSMGGAIAILTAAERPGHFAGMVLISPLVLANPESATTFKVLAAKVLNLVLPNLSLGPIDSSVLSRNKTEVDIYNSDPLICRAGLKVCFGIQLLNAVSRVERALPKLTVPFLLLQGSADRLCDSKGAYLLMELAKSQDKTLKIYEGAYHVLHKELPEVTNSVFHEINMWVSQRTATAGTASPP
modifications: N-terminal His tag and TEV site
B2: mut-MGLL. 1-303, L169S, L176S, K165A: engineered human MGLL 1-303 with L169S, L176S and surface mutation K165A (protein)
chain: B1 chain with K181A, L185S, L192S
B3: mut-MGLL 1-303, L169S, L176S, K226A: engineered human MGLL 1-303 with L169S, L176S and surface mutation K226A (protein)
chain: B1 chain with L185S, L192S, K242A
B4: mut-MGLL. 1-303, L169S, L176S, K160A: engineered human MGLL 1-303 with L169S, L176S and surface mutation K160A (protein)
chain: B1 chain with K176A, L185S, L192S
B5: mut-MGLL 1-303, L169S, L176S, K36A, K226A: engineered human MGLL 1-303 with L169S, L176S and surface mutations K36A, K226A (protein)
chain: B1 chain with K52A, L185S, L192S, K242A
B6: mut-MGLL. 1-303, L169S, L176S: engineered human MGLL 1-303 with cap-domain mutations L169S, L176S; SEQ ID NO: 5 after TEV cleavage (protein)
chain: T1 sequence (Q99685 with tags, fused parts or gaps L169S/L176S)

Columns and labels:
[1] = Thermofluor thermal stability assay (Tm of MGLL protein); assay type: physicochemical; settings: for Tm (midpoint of the melting transition): 0.05 mg/ml protein, 50 mM Pipes pH 7, 200 mM NaCl, 100 μM 1,8-ANS, 0.001% Tween
Text: (§1) Thermofluor® assays detect small changes in the intrinsic melting temperature of proteins based on binding of ligands. Compounds that interact preferentially with the native form of the protein will increase the Tm, the temperature at which half of the protein is unfolded (Pantoliano et al. 2001). The technique monitors changes in the fluorescent intensity of dyes such as 1-anilinonaphthalene-8-sulfonic acid (1,8-ANS). The fluorescent dyes are quenched in aqueous environments but increase in fluorescence on binding to the hydrophobic core of denatured proteins.
as §1, with “The Thermofluor®” for “Thermofluor®”, “assay is a powerful tool to screen for small molecule inhibitors interacting with a protein's active site or allosteric site. The assay detects” for “assays detect”
Thermofluor® assays were conducted to characterize wt-MGLL (hMGLL 1-303) (SEQ ID NO: 3) and mut-MGLL (hMGLL 1-303 L169S, L176S) and evaluate if the MGLL mutants could be used for high-throughput screening using Thermofluor®. Three microliters of protein at a concentration of 0.05 mg/ml in 50 mM Pipes pH 7, 200 mM NaCl, 100 μM 1,8-ANS, and 0.001% Tween was added to pre-dispensed compound plates. Wells were overlaid with silicone oil (1 μL, Fluka, type DC 200) to prevent evaporation. Final compound concentrations varied from 150 to 0.15 μM. Assay plates were heated at a rate of 1° C./min for all experiments over a temperature range sufficient to measure protein unfolding. Fluorescence was measured by continuous illumination with UV light (Hamamatsu LC6) supplied via fiber optic and filtered through a custom band-pass filter (380-400 nm; >60D cutoff). Fluorescence emission was detected by measuring light intensity using a CCD camera (Sensys, Roper Scientific) filtered to detect emission at 500±25 nm, resulting in simultaneous and independent readings of all 384 wells. One or more images were collected at each temperature, and the sum of the pixel intensity in a given area of the assay plate was recorded vs temperature, and fit to standard equations to yield the Tm.

[2] = system: MGLL; assay: Kinetic analysis: hydrolysis of 4-methylcoumarin butyrate (4MC-B) by MGLL constructs; assay type: biochemical, human; settings: substrate 4MC-B; 4-5 nM MGLL, 20 mM Pipes pH 7, 150 mM NaCl, 37° C.; average of 2 or 4 separate assays
Procedure: The Michaelis-Menten parameters for the hydrolysis of 4-methylcoumarin butyrate (4MC-B) and coumarin arachidonate (C-A) substrate were determined using 4-5 nM of MGLL in 20 mM Pipes pH 7 and 150 mM NaCl at 37° C. […] The hyperbolic rates versus substrate concentration curves for the hydrolysis of 4MC-B were fit to the Michaelis-Menten equation using Excel.

[3] = biological target: T1, MGLL; assay: Kinetic analysis: hydrolysis of coumarin arachidonate (C-A) by MGLL constructs; assay type: biochemical; settings: substrate C-A
Text: A small fluorescent substrate, 4-methyl coumarin butyrate (4MC-B) was used to compare the activity of the engineered mutants to the activity of wt-MGLL (hMGLL 1-303) (SEQ ID NO: 3). The catalytic efficiency (kcat/KM) for the hydrolysis of the 4MC-B was similar for wt-MGLL (hMGLL 1-303) (SEQ ID NO: 3) and all MGLL mutants tested (Table 2). A larger more aliphatic fluorescent substrate, Coumarin Arachidonate (C-A), structurally more closely related to the MGLL natural substrate, 2-AG, was used to compare the activity of wt-MGLL (hMGLL 1-303) (SEQ ID NO: 3) to TEV cleaved mut-MGLL (hMGLL 1-303 L169S, L176S) (SEQ ID NO: 5).
The Michaelis-Menten parameters for the hydrolysis of 4-methylcoumarin butyrate (4MC-B) and coumarin arachidonate (C-A) substrate were determined using 4-5 nM of MGLL in 20 mM Pipes pH 7 and 150 mM NaCl at 37° C. The change in fluorescence due to substrate hydrolysis was monitored using excitation/emission wavelengths of 335/440 in a Safire II instrument from Tecan. The hyperbolic rates versus substrate concentration curves for the hydrolysis of 4MC-B were fit to the Michaelis-Menten equation using Excel.
The apparent kcat/KM ratio for the hydrolysis of C-A was determined at [S]<<KM. […] The kcat/KM values reported are the average from independent values determined from five substrate concentrations ranging from 700 to 40 nM.

[4] = Size exclusion chromatography of protein purified in the absence of detergent (aggregation / monomer); assay type: physicochemical
Procedure: A pilot purification of wt-MGLL (hMGLL 1-303) (SEQ ID NO: 3), performed in the complete absence of detergent, generated no protein (data not shown). A second purification of wt-MGLL (hMGLL 1-303) (SEQ ID NO: 3) was done with detergent in the lysis buffer only. Frozen cell pellets for wt-MGLL (hMGLL 1-303) (SEQ ID NO: 3) were thawed, resuspended, and lysed in Bugbuster® lysis buffer for 1 hour at 4° C. Bugbuster® lysis buffer is a proprietary lysis buffer from […] that contains detergent. The lysate was clarified by centrifugation at 40,000×g for 1 hr. No detergent was added at this point or during the rest of the purification. From this point forward, the purification protocol and buffers were the same as described below for mut-MGLL. An average of 2.2 mg of wt-MGLL (hMGLL 1-303) (SEQ ID NO: 3) per liter of cell culture was obtained.
Mutant MGLL (mut-MGLL) constructs were purified in the absence of detergent. […] Fractions were analysed by SDS-PAGE. […] Purification yields were determined by Bradford assay using the protein assay kit from BioRad according to manufacturer's instruction with BSA as a standard (Bradford 1976).

Molecule	quality of the Thermofluor melting transition [1]	Tm (midpoint of the melting transition) [1] [°C]	Km [2] [µM]	other results
B1	very poor transition	58	–	–
B2	–	–	137	–
B3	–	–	110	–
B4	–	–	90	–
B5	–	–	123	–
B6	strong transition	56.7	–	catalytic efficiency for hydrolysis of C-A compared with wt-MGLL [3]: equivalent; monomer [4]: 90%
